Values of other authors, collected in patent US20230129812A1, “COMPOSITIONS AND METHODS FOR TREATING PULMONARY HYPERTENSION” (Acceleron Pharma Inc., priority 2020, published 2023).

T1: ActA (Homo sapiens, UniProt P08476)
T1 sequence (P08476 311-426): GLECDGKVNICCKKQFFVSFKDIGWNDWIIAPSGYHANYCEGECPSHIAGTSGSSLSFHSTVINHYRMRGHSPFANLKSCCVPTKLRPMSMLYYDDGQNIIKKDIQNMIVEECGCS

T2: GDF11 (Homo sapiens, UniProt O95390)
T2 sequence (O95390 299-407): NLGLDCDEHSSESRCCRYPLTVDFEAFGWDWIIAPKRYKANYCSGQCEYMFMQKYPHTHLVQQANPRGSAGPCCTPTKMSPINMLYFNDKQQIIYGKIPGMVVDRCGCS

B1: +15tail: soluble ActRIIB-Fc variant with the 15 amino acid tail, as reported in WO2006/012627 (protein)
chain: SGRGEAETRECIYYNANWELERTNQSGLERCEGEQDKRLHCYASWANSSGTIELVKKGCWLDDFNCYDRQECVATEENPQVYFCCCEGNFCNERFTHLPEAGGPEVTYEPPPTAPT
modifications: left off: a dimerising Fc or GST
B2: K74Y: soluble ActRIIB-Fc variant, as reported in WO2006/012627 (protein)
chain: SGRGEAETRECIYYNANWELERTNQSGLERCEGEQDKRLHCYASWANSSGTIELVYKGCWLDDFNCYDRQECVATEENPQVYFCCCEGNFCNERFTHLPEA
modifications: left off: a dimerising Fc or GST
B3: K74A: soluble ActRIIB-Fc variant, as reported in WO2006/012627 (protein)
chain: SGRGEAETRECIYYNANWELERTNQSGLERCEGEQDKRLHCYASWANSSGTIELVAKGCWLDDFNCYDRQECVATEENPQVYFCCCEGNFCNERFTHLPEA
modifications: left off: a dimerising Fc or GST
B4: D80F: soluble ActRIIB-Fc variant, as reported in WO2006/012627 (protein)
chain: SGRGEAETRECIYYNANWELERTNQSGLERCEGEQDKRLHCYASWANSSGTIELVKKGCWLFDFNCYDRQECVATEENPQVYFCCCEGNFCNERFTHLPEA
modifications: left off: a dimerising Fc or GST
B5: WT (64R): soluble ActRIIB-Fc, wild type with 64R, as reported in WO2006/012627 (protein)
chain: SGRGEAETRECIYYNANWELERTNQSGLERCEGEQDKRLHCYASWRNSSGTIELVKKGCWLDDFNCYDRQECVATEENPQVYFCCCEGNFCNERFTHLPEA
modifications: left off: a dimerising Fc or GST
B6: K74F: soluble ActRIIB-Fc variant, as reported in WO2006/012627 (protein)
chain: SGRGEAETRECIYYNANWELERTNQSGLERCEGEQDKRLHCYASWANSSGTIELVFKGCWLDDFNCYDRQECVATEENPQVYFCCCEGNFCNERFTHLPEA
modifications: left off: a dimerising Fc or GST
B7: D80G: soluble ActRIIB-Fc variant, as reported in WO2006/012627 (protein)
chain: SGRGEAETRECIYYNANWELERTNQSGLERCEGEQDKRLHCYASWANSSGTIELVKKGCWLGDFNCYDRQECVATEENPQVYFCCCEGNFCNERFTHLPEA
modifications: left off: a dimerising Fc or GST
B8: K74I: soluble ActRIIB-Fc variant, as reported in WO2006/012627 (protein)
chain: SGRGEAETRECIYYNANWELERTNQSGLERCEGEQDKRLHCYASWANSSGTIELVIKGCWLDDFNCYDRQECVATEENPQVYFCCCEGNFCNERFTHLPEA
modifications: left off: a dimerising Fc or GST
B9: D54A: soluble ActRIIB-Fc variant, as reported in WO2006/012627 (protein)
chain: SGRGEAETRECIYYNANWELERTNQSGLERCEGEQAKRLHCYASWANSSGTIELVKKGCWLDDFNCYDRQECVATEENPQVYFCCCEGNFCNERFTHLPEA
modifications: left off: a dimerising Fc or GST
B10: D80K: soluble ActRIIB-Fc variant, as reported in WO2006/012627 (protein)
chain: SGRGEAETRECIYYNANWELERTNQSGLERCEGEQDKRLHCYASWANSSGTIELVKKGCWLKDFNCYDRQECVATEENPQVYFCCCEGNFCNERFTHLPEA
modifications: left off: a dimerising Fc or GST
B11: R56A: soluble ActRIIB-Fc variant, as reported in WO2006/012627 (protein)
chain: SGRGEAETRECIYYNANWELERTNQSGLERCEGEQDKALHCYASWANSSGTIELVKKGCWLDDFNCYDRQECVATEENPQVYFCCCEGNFCNERFTHLPEA
modifications: left off: a dimerising Fc or GST
B12: D80A: soluble ActRIIB-Fc variant, as reported in WO2006/012627 (protein)
chain: SGRGEAETRECIYYNANWELERTNQSGLERCEGEQDKRLHCYASWANSSGTIELVKKGCWLADFNCYDRQECVATEENPQVYFCCCEGNFCNERFTHLPEA
modifications: left off: a dimerising Fc or GST
B13: D80I: soluble ActRIIB-Fc variant, as reported in WO2006/012627 (protein)
chain: SGRGEAETRECIYYNANWELERTNQSGLERCEGEQDKRLHCYASWANSSGTIELVKKGCWLIDFNCYDRQECVATEENPQVYFCCCEGNFCNERFTHLPEA
modifications: left off: a dimerising Fc or GST
B14: W78A: soluble ActRIIB-Fc variant, as reported in WO2006/012627 (protein)
chain: SGRGEAETRECIYYNANWELERTNQSGLERCEGEQDKRLHCYASWANSSGTIELVKKGCALDDFNCYDRQECVATEENPQVYFCCCEGNFCNERFTHLPEA
modifications: left off: a dimerising Fc or GST
B15: L79A: soluble ActRIIB-Fc variant, as reported in WO2006/012627 (protein)
chain: SGRGEAETRECIYYNANWELERTNQSGLERCEGEQDKRLHCYASWANSSGTIELVKKGCWADDFNCYDRQECVATEENPQVYFCCCEGNFCNERFTHLPEA
modifications: left off: a dimerising Fc or GST
B16: K55A: soluble ActRIIB-Fc variant, as reported in WO2006/012627 (protein)
chain: SGRGEAETRECIYYNANWELERTNQSGLERCEGEQDARLHCYASWANSSGTIELVKKGCWLDDFNCYDRQECVATEENPQVYFCCCEGNFCNERFTHLPEA
modifications: left off: a dimerising Fc or GST
B17: D80R: soluble ActRIIB-Fc variant, as reported in WO2006/012627 (protein)
chain: SGRGEAETRECIYYNANWELERTNQSGLERCEGEQDKRLHCYASWANSSGTIELVKKGCWLRDFNCYDRQECVATEENPQVYFCCCEGNFCNERFTHLPEA
modifications: left off: a dimerising Fc or GST
B18: E37A: soluble ActRIIB-Fc variant, as reported in WO2006/012627 (protein)
chain: SGRGEAETRECIYYNANWALERTNQSGLERCEGEQDKRLHCYASWANSSGTIELVKKGCWLDDFNCYDRQECVATEENPQVYFCCCEGNFCNERFTHLPEA
modifications: left off: a dimerising Fc or GST
B19: R40A: soluble ActRIIB-Fc variant, as reported in WO2006/012627 (protein)
chain: SGRGEAETRECIYYNANWELEATNQSGLERCEGEQDKRLHCYASWANSSGTIELVKKGCWLDDFNCYDRQECVATEENPQVYFCCCEGNFCNERFTHLPEA
modifications: left off: a dimerising Fc or GST

What was measured:
ActA = biological target: T1, ActA; set-up: key to ActA binding relative to WT: *: No observed binding; −−: <⅕ WT binding; −: ~½ WT binding; +: WT; ++: <2x increased binding; +++: ~5x increased binding; ++++: ~10x increased binding; +++++: ~40x increased binding; settings: cited from earlier work; for ActA binding relative to WT: Table 11, reproduced from WO2006/012627; for ratio of activin A (ActA) binding to GDF11 binding, relative to the wild-type K74 molecule: WO2006/012627
GDF11 = biological target: T2, GDF11; set-up: key: *: No observed binding; −−: <⅕ WT binding; −: ~½ WT binding; +: WT; ++: <2x increased binding; +++: ~5x increased binding; ++++: ~10x increased binding; +++++: ~40x increased binding; settings: Table 11, reproduced from WO2006/012627; cited from earlier work

Row | Molecule | ActA binding relative to WT (ActA) | GDF11 binding relative to WT (GDF11) | ratio of activin A (ActA) binding to GDF11 binding, relative to the wild-type K74 molecule (ActA)
1 | B1 | (+++) (~5x increased binding) | (++++) (~10x increased binding) | –
2 | B2 | * | −− (<⅕ WT binding) | decrease
3 | B3 | +++++ (~40x increased binding) | – | –
4 | B4 | * | * | –
5 | B5 | – | (+++) (~5x increased binding) | –
6 | B6 | * | −− (<⅕ WT binding) | decrease
7 | B7 | * | * | –
8 | B8 | * | −− (<⅕ WT binding) | decrease
9 | B9 | − (~½ WT binding) | * | –
10 | B10 | * | * | –
11 | B11 | * | * | –
12 | B12 | * | * | –
13 | B13 | * | −− (<⅕ WT binding) | decrease
14 | B14 | * | * | –
15 | B15 | + | * | –
16 | B16 | ++ (<2x increased binding) | * | –
17 | B17 | * | * | –
18 | B18 | * | * | –
19 | B19 | − (~½ WT binding) | − (~½ WT binding) | –
